Measured values from patent US20210403579A1 (DELINIA, published 2021).
Positions count from the first letter of the chain named.

T1: Human ST2 (human, UniProt Q01638 19-328, limits assumed)
T1 construct: also called human ST2 protein; Interleukin 1 receptor-like 1
T1 sequence (looked up): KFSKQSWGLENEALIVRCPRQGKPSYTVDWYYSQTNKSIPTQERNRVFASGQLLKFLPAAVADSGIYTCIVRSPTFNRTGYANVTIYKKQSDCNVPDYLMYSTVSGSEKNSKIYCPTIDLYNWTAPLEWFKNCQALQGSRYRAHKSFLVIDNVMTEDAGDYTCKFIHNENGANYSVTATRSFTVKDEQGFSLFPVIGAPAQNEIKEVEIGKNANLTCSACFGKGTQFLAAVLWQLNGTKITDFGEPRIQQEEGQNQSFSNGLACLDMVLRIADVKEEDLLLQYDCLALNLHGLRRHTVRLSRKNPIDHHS

B1: Human ST2 IgG1 Antibody 62 (antibody, V domains shown)
VH: QVQLVQSGAEVKKPGSSVKVSCKASGYIFTNYWIQWVRQAPGQGLEWMGGIIPIFETANYAQKFQGRVTITADDSTSTAYMELSSLRSEDTAVYYCARLGDRGDFDYWGQGTLVTVSS
VL: DIVMTQSPDSLAVSLGERATINCKSSQSISHSPNTRDYLAWYQQKPGQPPKLLIYWASTRESGVPDRFSGSGSGTDFTLTISSLQAEDVAVYYCQQYYRFPLAFGQSTKVEIKR
notes: IgG1; also called ST2 Antibody 62
B2: Human ST2 IgG1 Antibody 68 (antibody, V domains shown)
VH: QVQLVQSGAEVKKPGSSVKVSCKASGGTFSSYAISWVRQAPGQGLEWMGGIIPVVGSPDYAQRFQGRVTITADESTSTAYMELSSLRSEDTAVYYCARHSIVGATATSMDVWGKGTTVTVSS
VL: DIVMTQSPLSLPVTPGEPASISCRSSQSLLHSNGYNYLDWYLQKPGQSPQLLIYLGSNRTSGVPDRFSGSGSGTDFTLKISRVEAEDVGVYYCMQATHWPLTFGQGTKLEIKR
notes: IgG1; also called ST2 Antibody 68
B3: Human ST2 IgG1 Antibody 67 (antibody, V domains shown)
VH: QVQLVQSGAEVKKPGASVKVSCKASGGTFSSYAISWVRQAPGQGLEWMGRINPNSGGTVYAQKFQGRVTMTRDTSTSTVYMELSSLRSEDTAVYYCARDTSIAARLNPDYYYYYGMDVWGQGTTVTVSS
VL: DIQMTQSPSSLSASVGDRVTITCRASQSISSWLAWYQQKPGKAPKLLIYAASNLQSGVPSRFSGSGSGTDFTLTISSLQPEDFATYYCQQSYSTPVTFGQSTRLEIKR
notes: IgG1; also called ST2 Antibody 67
B4: Human ST2 IgG1 Antibody 61 (antibody, V domains shown)
VH: QVQLVQSGAEVKKPGSSVKVSCKASGGTFSNYAISWVRQAPGQGLEWMGGIIPVFGTATYAQKFQGRVTITADESTSTAYMELSSLRSEDTAVYYCARVTAMGVGWYFDLWGRGTLVTVSS
VL: DIVMTQSPLSLPVTPGEPASISCRSSQSLLHSNGYNYLDWYLQKPGQSPQLLIYAASSLQSGVPDRFSGSGSGTDFTLKISRVEAEDVGVYYCMQSLQTPPTFGQGTKLEIKR
notes: IgG1; also called ST2 Antibody 61
B5: Human ST2 IgG1 Antibody 69 (antibody, V domains shown)
VH: QVQLVQSGAEVKKPGASVKVSCKASGYTFSDYYVHWVRQAPGQGLEWMGWISAYNGNTNYAQKLQGRVTMTRDTSTSTVYMELSSLRSEDTAVYYCARGSLDIWFREPGVYMDVWGKGTTVTVSS
VL: B4 VL with S96A, P101I, L109V
notes: IgG1; also called ST2 Antibody 69
B6: Human ST2 IgG1 Antibody 66 (antibody, V domains shown)
VH: QVQLVQSGAEVKKPGSSVKVSCKASGGTFSSNAISWVRQAPGQGLEWMGGIIPIFGTANYAQKFQGRVTITADESTSTAYMELSSLRSEDTAVYYCAGSPTGTPRVVFDYWGQGTLVTVSS
VL: B4 VL with S96A, P101I, K108R
notes: IgG1; also called ST2 Antibody 66
B7: Human ST2 IgG1 Antibody 63 (antibody, V domains shown)
VH: QVQLVQSGAEVKKPGSSVKVSCKASGGTFSSDAINWVRQAPGQGLEWMGGIVPAFGTANYAQKFQGRVTITADESTSTAYMELSSLRSEDTAVYYCARSSSSWPYYYYYMDVWGKGTTVTVSS
VL: B4 VL with H31L, S32N, Y35N, Y37F, L38I, S58I, S61G, S96A, L109V
notes: IgG1; also called ST2 Antibody 63
B8: Human ST2 IgG1 Antibody 64 (antibody, V domains shown)
VH: QVQLVQSGAEVKKPGSSVKVSCKASGYFFTSYGISWVRQAPGQGLEWMGGVIPISGTANYAQSFQGRVTITADESTSTAYMELSSLRSEDTAVYYCARDENGAFDIWGQGTTVTVSS
VL: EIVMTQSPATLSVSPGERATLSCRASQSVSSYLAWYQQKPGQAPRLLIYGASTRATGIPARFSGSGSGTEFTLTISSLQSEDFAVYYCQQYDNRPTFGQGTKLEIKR
notes: IgG1; also called ST2 Antibody 64

Target: T1, Human ST2
Assay: SPR (Carterra), antibody immobilized, ST2 analyte
Procedure: Binding of the reformatted human ST2 antibodies to the human and mouse ST2 proteins was evaluated by surface plasmon resonance (SPR), using a high throughput antibody screening and characterization platform from Carterra (Salt Lake City, Utah).

Kd [nM]	koff [s⁻¹]	kon [M⁻¹ s⁻¹]	Binder
71	0.068	960000	B1
704	0.13	190000	B2
738	0.1	140000	B3
563	0.14	260000	B4
71	0.029	410000	B5
176	0.0028	16000	B6
96	0.043	450000	B7
366	0.12	330000	B8
